Patent US20240116985A1 (published 2024)
Starred links: 1 amine or outer side, 2 acyl side, 3 side chain; linkers in the order of their positions; H or OH if unused. Positions of bridges follow the written chain, without caps; N, C: chain ends. Non-standard residues stand in square brackets, D forms with d. Primed or numbered codes have the meaning given here. B5(17) = 2,2-bis(4-pentenyl)glycine = 2-amino-2-(pent-4-en-1-yl)hept-6-enoic acid, stitching residue, C=CCCCC(CCCC=C)(N[*:1])C(=O)[*:2]; B5(4) = 2,2-bis(4-pentenyl)glycine = 2-amino-2-(pent-4-en-1-yl)hept-6-enoic acid (stitching residue), C=CCCCC(CCCC=C)(N[*:1])C(=O)[*:2]; PyrS4 = (S)-3-amino-1-((hept-6-en-1-yloxy)carbonyl)pyrrolidine-3-carboxylic acid, C=CCCCCCOC(=O)N1CC[C@@](N[*:1])(C(=O)[*:2])C1; B3 = 2-allyl-2-aminopent-4-enoic acid, C=CCC(CC=C)(N[*:1])C(=O)[*:2]; Bta = N[C@@H](Cc1csc2ccccc12)C(=O)O; αAllylPro = C=CC[C@@]1(C(=O)O)CCCN1; tBuAla = CC(C)(C)C[C@H](N)C(=O)O; 3Thi = N[C@@H](Cc1ccsc1)C(=O)O; S8 = C=CCCCCCC[C@](C)(N)C(=O)O; hLeu = CC(C)CC[C@H](N)C(=O)O

B1: I-550 (peptide)
peptide: XDIXDDAAFNXFXQ
modifications: not fully specified; N-terminal Ac; PL3 at 1; B5 at 4; S8 at 11; 2OMeF at 12; BztA at 13; C-terminal NH2; staples PL3(1)-B5(4) and B5(4)-S8(11) by olefin metathesis

The binders below were run against T1, B-cat-Halo (beta-catenin HaloTag NanoBRET construct expressed in HEK293 cells) (UniProt P35222 1-781) (assay: cell-based or functional assay).
T1 sequence (looked up): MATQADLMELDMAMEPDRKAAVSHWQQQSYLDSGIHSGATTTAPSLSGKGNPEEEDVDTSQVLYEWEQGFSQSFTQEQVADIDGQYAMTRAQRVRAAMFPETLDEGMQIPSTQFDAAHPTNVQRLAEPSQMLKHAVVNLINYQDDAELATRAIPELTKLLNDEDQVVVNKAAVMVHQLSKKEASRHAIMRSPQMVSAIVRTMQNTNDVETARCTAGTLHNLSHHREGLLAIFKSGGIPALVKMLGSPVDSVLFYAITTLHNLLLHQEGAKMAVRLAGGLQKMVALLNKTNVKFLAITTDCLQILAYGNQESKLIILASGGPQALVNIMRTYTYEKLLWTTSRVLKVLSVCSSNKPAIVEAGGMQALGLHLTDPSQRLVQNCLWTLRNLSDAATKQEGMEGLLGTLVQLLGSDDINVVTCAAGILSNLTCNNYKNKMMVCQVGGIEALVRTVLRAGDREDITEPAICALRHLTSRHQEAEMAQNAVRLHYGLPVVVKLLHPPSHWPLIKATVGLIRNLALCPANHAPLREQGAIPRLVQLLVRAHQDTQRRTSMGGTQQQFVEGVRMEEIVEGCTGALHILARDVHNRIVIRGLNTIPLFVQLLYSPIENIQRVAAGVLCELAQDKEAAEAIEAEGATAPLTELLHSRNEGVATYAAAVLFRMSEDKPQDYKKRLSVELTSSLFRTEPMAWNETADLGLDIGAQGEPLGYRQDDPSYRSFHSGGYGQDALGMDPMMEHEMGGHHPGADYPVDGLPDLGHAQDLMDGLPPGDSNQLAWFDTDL
In the case of Ac-[αAllylPro]D[tBuAla][B3]DDAAFL[PyrS4][3Thi][Bta]Q-NH2 (staple 1-4, 4-11; also: olefin in each staple reduced to -CH2-CH2-) [I-2162], the “NanoBRET Abs IC50” value is reported as > 20 µM.

Each binder was assayed against T2, B-cat-Halo (beta-catenin HaloTag NanoBRET construct expressed in HEK293 cells) (UniProt P35222 1-781) (assay: cell-based or functional assay).
T2 sequence (looked up): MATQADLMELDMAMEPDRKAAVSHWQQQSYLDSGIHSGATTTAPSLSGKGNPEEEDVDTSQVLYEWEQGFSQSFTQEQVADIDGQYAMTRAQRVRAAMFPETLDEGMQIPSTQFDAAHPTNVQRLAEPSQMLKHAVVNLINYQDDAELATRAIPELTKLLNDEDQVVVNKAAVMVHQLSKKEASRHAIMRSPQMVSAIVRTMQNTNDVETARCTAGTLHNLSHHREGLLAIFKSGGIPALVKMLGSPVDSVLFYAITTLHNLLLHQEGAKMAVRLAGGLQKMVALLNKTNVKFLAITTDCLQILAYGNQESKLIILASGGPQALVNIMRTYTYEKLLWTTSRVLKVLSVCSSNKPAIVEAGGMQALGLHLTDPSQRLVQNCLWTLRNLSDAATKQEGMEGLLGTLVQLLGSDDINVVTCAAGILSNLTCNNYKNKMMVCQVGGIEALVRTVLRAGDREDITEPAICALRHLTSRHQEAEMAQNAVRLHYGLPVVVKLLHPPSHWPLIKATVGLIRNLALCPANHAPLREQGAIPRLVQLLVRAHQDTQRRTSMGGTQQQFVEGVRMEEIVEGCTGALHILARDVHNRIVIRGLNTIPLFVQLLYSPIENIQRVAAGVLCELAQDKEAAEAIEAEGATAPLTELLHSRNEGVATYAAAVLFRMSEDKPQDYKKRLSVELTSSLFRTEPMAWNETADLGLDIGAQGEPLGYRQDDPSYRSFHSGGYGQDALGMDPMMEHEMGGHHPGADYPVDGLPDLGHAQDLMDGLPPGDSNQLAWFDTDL
For Ac-[αAllylPro]D[tBuAla][B5(4)]DEAAFQ[S8]F[Bta]Q-NH2 (staple 1-4, 4-11) [I-544], the “NanoBRET Abs IC50” value was 4.6 µM.
For Ac-[αAllylPro]D[hLeu][B5(4)]DEAAFQ[S8]F[Bta]Q-NH2 (staple 1-4, 4-11) [I-545], the “NanoBRET Abs IC50” value was 3.5 µM.
Ac-[αAllylPro]DI[B5(17)]DEAAFN[S8]F[Bta]Q-NH2 (staple 1-4, 4-11) [I-557] was tested, and the “NanoBRET Abs IC50” value was 16.9 µM.
Ac-[αAllylPro]DL[B5(4)]DEAAFN[S8]F[Bta]H-NH2 (staple 1-4, 4-11) [I-543] was tested, and the “NanoBRET Abs IC50” value was 17 µM.
In the case of Ac-[αAllylPro]D[tBuAla][B5(4)]DDAAFN[S8]F[Bta]Q-NH2 (staple 1-4, 4-11) [I-546], the “NanoBRET Abs IC50” value is reported as 12.1 µM.
B1 was tested, and the “NanoBRET Abs IC50” value was 21.4 µM.

What follows are binders tested against T3, full-length beta-Catenin (Uniprot ID P35222) (Homo sapiens (Human), UniProt P35222 1-781) (assay: fluorescence polarization competition; full-length beta-catenin with 5FAM-labeled TCF4 residues 10-53 probe as competitor).
T3 construct: also called bCat; B-Catenin
T3 sequence: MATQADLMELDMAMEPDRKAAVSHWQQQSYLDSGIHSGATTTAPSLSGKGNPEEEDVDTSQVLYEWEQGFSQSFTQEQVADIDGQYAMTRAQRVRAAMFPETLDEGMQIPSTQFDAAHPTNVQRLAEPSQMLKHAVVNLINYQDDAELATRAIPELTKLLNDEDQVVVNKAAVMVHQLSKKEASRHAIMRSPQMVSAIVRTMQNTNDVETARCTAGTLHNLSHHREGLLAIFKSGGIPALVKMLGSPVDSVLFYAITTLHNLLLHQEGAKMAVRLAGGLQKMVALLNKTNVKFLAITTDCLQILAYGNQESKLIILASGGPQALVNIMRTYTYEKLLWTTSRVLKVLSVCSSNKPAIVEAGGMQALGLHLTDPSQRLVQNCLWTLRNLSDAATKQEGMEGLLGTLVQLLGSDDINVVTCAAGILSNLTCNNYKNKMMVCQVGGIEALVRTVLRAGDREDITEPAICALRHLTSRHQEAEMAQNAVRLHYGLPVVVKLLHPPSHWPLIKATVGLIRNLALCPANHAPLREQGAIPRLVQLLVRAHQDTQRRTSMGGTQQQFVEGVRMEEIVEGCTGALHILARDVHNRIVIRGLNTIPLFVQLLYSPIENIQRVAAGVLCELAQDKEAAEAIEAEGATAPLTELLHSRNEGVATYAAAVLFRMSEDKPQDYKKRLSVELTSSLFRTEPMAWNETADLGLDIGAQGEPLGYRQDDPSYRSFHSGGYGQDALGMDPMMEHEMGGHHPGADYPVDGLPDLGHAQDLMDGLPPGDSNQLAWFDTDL
Method: The plate was incubated protected from light for 60 minutes at 20° C. prior to read. Reads were performed on a CLARIOstar plate reader (BMG Labtech) in duplicate, and data were fitted to a 1:1 binding model with hill slope using an in-house script. All provided concentrations are final concentrations.
For Ac-[αAllylPro]DI[B5(17)]DEAAFN[S8]F[Bta]Q-NH2 (staple 1-4, 4-11) [I-557], the IC50 was 0.035 µM.
Ac-[αAllylPro]DL[B5(4)]DEAAFN[S8]F[Bta]H-NH2 (staple 1-4, 4-11) [I-543] gave an IC50 of 0.032 µM.
For B1, the IC50 was 0.03 µM.
